This passage reports saturate peptide concentration results from patent US20250333474A1.

The assay deals with T1, H-2K^b of MHC class I of MutuDC1940 cells (without loaded OVA^257-264 peptide) (mouse).
T1 chain 1: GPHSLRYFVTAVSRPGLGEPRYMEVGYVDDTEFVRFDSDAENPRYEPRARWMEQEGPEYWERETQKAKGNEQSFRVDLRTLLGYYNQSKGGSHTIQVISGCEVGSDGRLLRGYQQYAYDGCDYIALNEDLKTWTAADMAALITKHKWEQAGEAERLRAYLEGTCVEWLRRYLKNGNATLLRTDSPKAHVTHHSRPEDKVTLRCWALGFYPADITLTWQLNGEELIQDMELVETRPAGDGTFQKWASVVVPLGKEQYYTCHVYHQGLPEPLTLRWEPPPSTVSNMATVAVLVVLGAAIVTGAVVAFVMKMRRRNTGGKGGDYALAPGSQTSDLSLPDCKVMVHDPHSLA
T1 chain 2: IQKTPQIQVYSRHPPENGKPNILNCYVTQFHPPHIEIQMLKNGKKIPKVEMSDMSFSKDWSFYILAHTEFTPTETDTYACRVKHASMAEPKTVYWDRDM
As to the kind of experiment: peptide loading on MutuDC1940 cells for 24 h, read by 25D1.16 staining and flow cytometry. The note with it: remark: other sources report otherwise.

In the case of SIINFEKL [OVA^257-264 antigen peptide], the saturate peptide concentration stood at 2 µg/mL.
